{"source": "paper PMC2628407", "key": {"[1]": {"tested_on": "FMRP (His-tagged recombinant)", "test": "EMSA competition", "details": "vs 32P-N19; EMSA or filter binding as in ref 4, with K+ or Na+; buffer, pH and temperature not in the material"}, "[2]": {"tested_on": "FXR1P Isoe", "test": "filter binding competition", "details": "self-competition, 32P-Sod1; EMSA or filter binding as in ref 4, with K+ or Na+; buffer, pH and temperature not in the material"}, "[3]": {"tested_on": "FMRP (His-tagged recombinant)", "test": "filter binding competition", "details": "vs 32P-N19; EMSA or filter binding as in ref 4, with K+ or Na+; buffer, pH and temperature not in the material"}}}
{"substance": "Sod1 full-length mRNA", "values": [{"measurement": "binding signal (% competition at 5 nM)", "setting": "[1]", "value": 65}, {"measurement": "IC50", "setting": "[2]", "value": 20, "unit": "nM"}, {"measurement": "IC50", "setting": "[3]", "value": 3, "unit": "nM"}]}
{"substance": "Sod1-5' region", "values": [{"measurement": "IC50", "setting": "[3]", "value": 3, "unit": "nM"}]}
